In publication PMC9581579 (2022):

Key:
[1] = biological target: T1, His-Avi-Trx-Frmpd1-pept (Frmpd1 residues 895–938) (UniProt A2AKB4 895-938, not fully specified; biotin (biotinylated in E. coli by native BirA ligase)); assay: BLI; in the presence of Gαt*
T1 chain: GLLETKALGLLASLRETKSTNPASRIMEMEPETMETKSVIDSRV

[2] = biological target: T1, His-Avi-Trx-Frmpd1-pept (Frmpd1 …); assay: BLI

B1: HMT-Gpsm2 (His6-MBP-TEV site-Gpsm2) (natural protein)
chain: MEENLISMREDHSFHVRYRMEASCLELALEGERLCKSGDCRAGVSFFEAAVQVGTEDLKTLSAIYSQLGNAYFYLHDYAKALEYHHHDLTLARTIGDQLGEAKASGNLGNTLKVLGNFDEAIVCCQRHLDISRELNDKVGEARALYNLGNVYHAKGKSFGCPGPQDVGEFPEEVRDALQAAVDFYEENLSLVTALGDRAAQGRAFGNLGNTHYLLGNFRDAVIAHEQRLLIAKEFGDKAAERRAYSNLGNAYIFLGEFETASEYYKKTLLLARQLKDRAVEAQSCYSLGNTYTLLQDYEKAIDYHLKHLAIAQELNDRIGEGRACWSLGNAYTALGNHDQAMHFAEKHLEISREVGDKSGELTARLNLSDLQMVLGLSYSTNNSIMSENTEIDSSLNGVRPKLGRRHSMENMELMKLTPEKVQNWNSEILAKQKPLIAKPSAKLLFVNRLKGKKYKTNSSTKVLQDASNSIDHRIPNSQRKISADTIGDEGFFDLLSRFQSNRMDDQRCCLQEKNCHTASTTTSSTPPKMMLKTSSVPVVSPNTDEFLDLLASSQSRRLDDQRASFSNLPGLRLTQNSQSVLSHLMTNDNKEADEDFFDILVKCQGSRLDDQRCAPPPATTKGPTVPDEDFFSLILRSQGKRMDEQRVLLQRDQNRDTDFGLKDFLQNNALLEFKNSGKKSADH
- Kd [1]: 198 nM
- Kd [2]: 286 nM
